# Assay results: patent US20170233781
# Changes are numbered by the printed parent chain. In names and notes the source's numbering stands.
# T1: ENLYFQS substrate (SEQ ID NO:8)
# T1 chain: ENLYFQS
# T2: ENLYFES substrate (SEQ ID NO:1)
# T2 chain: ENLYFES
# T3: ALARR substrate (SEQ ID NO:36)
# T3 chain: ALARR
# T4: ALLPR substrate (SEQ ID NO:46)
# T4 chain: ALLPR
# T5: ALSRR substrate (SEQ ID NO:38)
# T5 chain: ALSRR
# T6: LLCKR substrate (SEQ ID NO:50)
# T6 chain: LLCKR
# T7: LQPRA substrate (SEQ ID NO:51)
# T7 chain: LQPRA
# T8: LRPRA substrate (SEQ ID NO:37)
# T8 chain: LRPRA
# T9: PLLAR substrate (SEQ ID NO:47)
# T9 chain: PLLAR
# T10: PLLPR substrate (SEQ ID NO:42)
# T10 chain: PLLPR
# T11: PLLRR substrate (SEQ ID NO:43)
# T11 chain: PLLRR
# T12: PLRPR substrate (SEQ ID NO:44)
# T12 chain: PLRPR
# T13: PLVPR substrate (SEQ ID NO:48)
# T13 chain: PLVPR
# T14: RLAPR substrate (SEQ ID NO:45)
# T14 chain: RLAPR
# T15: RLLPR substrate (SEQ ID NO:40)
# T15 chain: RLLPR
# T16: RLRPR substrate (SEQ ID NO:39)
# T16 chain: RLRPR
# T17: RLSRR substrate (SEQ ID NO:41)
# T17 chain: RLSRR
# T18: RLTPR substrate (SEQ ID NO:31)
# T18 chain: RLTPR
# T19: RRRRR substrate
# T19 chain: RRRRR
# T20: SLRRR substrate (SEQ ID NO:49)
# T20 chain: SLRRR
# T21: SPAKR substrate (SEQ ID NO:32)
# T21 chain: SPAKR
# T22: VARRD substrate (SEQ ID NO:14)
# T22 chain: VARRD
# B1: wild-type tobacco etch mosaic virus protease (TEV-P) (protein)
# chain: GESLFKGPRDYNPISSTICHLTNESDGHTTSLYGIGFGPFIITNKHLFRRNNGTLLVQSLHGVFKVKNTTTLQQHLIDGRDMIIIRMPKDFPPFPQKLKFREPQREERICLVTTNFQTKSMSSMVSDTSCTFPSSDGIFWKHWIQTKDGQCGSPLVSTRDGFIVGIHSASNFTNTNNYFTSVPKNFMELLTNQEAQQWVSGWRLNADSVLWGGHKVFMSKPEEPFQPVKEATQLMNELVYSQFEHDEL
# B2: engineered TEV protease variant TEV-PE10 (S120R, D148R, T173A, N177K, M218I) (protein)
# chain: B1 chain with S120R, D148R, T173A, N177K, M218I
# B3: Kex2 convertase (endogenous, yeast secretory pathway of Saccharomyces cerevisiae EBY100) (protein)
# chain: APPMDSSLLPVKEAEDKLSINDPLFERQWHLVNPSFPGSDINVLDLWYNNITGAGVVAAIVDDGLDYENEDLKDNFCAEGSWDFNDNTNLPKPRLSDDYHGTRCAGEIAAKKGNNFCGVGVGYNAKISGIRILSGDITTEDEAASLIYGLDVNDIYSCSWGPADDGRHLQGPSDLVKKALVKGVTEGRDSKGAIYVFASGNGGTRGDNCNYDGYTNSIYSITIGAIDHKDLHPPYSEGCSAVMAVTYSSGSGEYIHSSDINGRCSNSHGGTSAAAPLAAGVYTLLLEANPNLTWRDVQYLSILSAVGLEKNADGDWRDSAMGKKYSHRYGFGKIDAHKLIEMSKTWENVNAQTWFYLPTLYVSQSTNSTEETLESVITISEKSLQDANFKRIEHVTVTVDIDTEIRGTTTVDLISPAGIISNLGVVRPRDVSSEGFKDWTFMSVAHWGENGVGDWKIKVKTTENGHRIDFHSWRLKLFGESIDSSKTETFVFGNDKEEVEPAATESTVSQYSASSTSISISATSTSSISIGVETSAIPQTTTASTDPDSDPNTPKKLSSPRQAMHYFLTIFLIGATFLVLYFMFFMKSRRRIRRSRAETYEFDIIDTDSEYDSTLDNGTSGITEPEEVEDFDFDLSDEDHLASLSSSENGDAEHTIDSVLTNENPFSDPIKQKFPNDANAESASNKLQELQPDVPPSSGRS
# How the values were obtained:
# [1] = test system: LPETA sorting signal (SEQ ID NO:29)
# [2] = biological target: T1, ENLYFQS substrate (SEQ ID NO:8)
# [3] = biological target: T2, ENLYFES substrate (SEQ ID NO:1)
# [4] = biological target: T3, ALARR substrate (SEQ ID NO:36)
# [5] = biological target: T4, ALLPR substrate (SEQ ID NO:46)
# [6] = biological target: T5, ALSRR substrate (SEQ ID NO:38)
# [7] = biological target: T6, LLCKR substrate (SEQ ID NO:50)
# [8] = biological target: T7, LQPRA substrate (SEQ ID NO:51)
# [9] = biological target: T8, LRPRA substrate (SEQ ID NO:37)
# [10] = biological target: T9, PLLAR substrate (SEQ ID NO:47)
# [11] = biological target: T10, PLLPR substrate (SEQ ID NO:42)
# [12] = biological target: T11, PLLRR substrate (SEQ ID NO:43)
# [13] = biological target: T12, PLRPR substrate (SEQ ID NO:44)
# [14] = biological target: T13, PLVPR substrate (SEQ ID NO:48)
# [15] = biological target: T14, RLAPR substrate (SEQ ID NO:45)
# [16] = biological target: T15, RLLPR substrate (SEQ ID NO:40)
# [17] = biological target: T16, RLRPR substrate (SEQ ID NO:39)
# [18] = biological target: T17, RLSRR substrate (SEQ ID NO:41)
# [19] = biological target: T18, RLTPR substrate (SEQ ID NO:31)
# RRRRR substrate = biological target: T19, RRRRR substrate
# [20] = biological target: T20, SLRRR substrate (SEQ ID NO:49)
# [21] = biological target: T21, SPAKR substrate (SEQ ID NO:32)
# [22] = biological target: T22, VARRD substrate (SEQ ID NO:14)
molecule,measurement,setting,value
SrtA from S. pyogenes (residues 81-249),"sortase transpeptidation in yeast ER (FACS, HA-FITC against FLAG-PE)",[1],"A positive signal resulted in an increase in HA-FITC signal and decrease in FLAG-PE signal (FIG. 6B), in comparison to the negative control (FIG. 6A)"
B1,enrichment of cleaved substrate sequences after FACS sorting (YESS with NextGen sequencing),[2],significant enrichments of the ENLYFQS (SEQ ID NO:8) sequence were observed for the wide-type TEV-P
B2,enrichment of cleaved substrate sequences after FACS sorting (YESS with NextGen sequencing),[3],significant enrichments of the ... ENLYFES (SEQ ID NO:1) sequence for the engineered TEV-PE10
B3,"substrate cleavage in EBY100 against EBY100^Kex2- (two-colour FACS, FLAG-PE/HA-FITC)",[4],✓
same,"substrate cleavage in EBY100 against EBY100^Kex2- (two-colour FACS, FLAG-PE/HA-FITC)",[5],✓
same,"substrate cleavage in EBY100 against EBY100^Kex2- (two-colour FACS, FLAG-PE/HA-FITC)",[6],✓
same,substrate cleavage in EBY100 against EBY100^Kex2- (two-colour FACS),[7],All three substrates exhibited cleavage in EBY100 and non-cleavage in EBY100^Kex2-
same,substrate cleavage in EBY100 against EBY100^Kex2- (two-colour FACS),[8],efficient cleavage in the EBY100 and non-cleavage in the EBY100^Kex2- strain
same,"substrate cleavage in EBY100 against EBY100^Kex2- (two-colour FACS, FLAG-PE/HA-FITC)",[9],✓
same,"substrate cleavage in EBY100 against EBY100^Kex2- (two-colour FACS, FLAG-PE/HA-FITC)",[10],✓
same,"substrate cleavage in EBY100 against EBY100^Kex2- (two-colour FACS, FLAG-PE/HA-FITC)",[11],✓
same,"substrate cleavage in EBY100 against EBY100^Kex2- (two-colour FACS, FLAG-PE/HA-FITC)",[12],✓
same,"substrate cleavage in EBY100 against EBY100^Kex2- (two-colour FACS, FLAG-PE/HA-FITC)",[13],✓
same,"substrate cleavage in EBY100 against EBY100^Kex2- (two-colour FACS, FLAG-PE/HA-FITC)",[14],✓
same,"substrate cleavage in EBY100 against EBY100^Kex2- (two-colour FACS, FLAG-PE/HA-FITC)",[15],✓
same,"substrate cleavage in EBY100 against EBY100^Kex2- (two-colour FACS, FLAG-PE/HA-FITC)",[16],✓
same,"substrate cleavage in EBY100 against EBY100^Kex2- (two-colour FACS, FLAG-PE/HA-FITC)",[17],✓
same,"substrate cleavage in EBY100 against EBY100^Kex2- (two-colour FACS, FLAG-PE/HA-FITC)",[18],✓
same,"substrate cleavage in EBY100 against EBY100^Kex2- (two-colour FACS, FLAG-PE/HA-FITC)",[19],✓
same,substrate cleavage in EBY100 against EBY100^Kex2-,RRRRR substrate,the RRRRR was also found to be only cleaved in the EBY100 and not in the EBY100^Kex2-
same,"substrate cleavage in EBY100 against EBY100^Kex2- (two-colour FACS, FLAG-PE/HA-FITC)",[20],✓
same,substrate cleavage in EBY100 against EBY100^Kex2- (two-colour FACS),[21],All three substrates exhibited cleavage in EBY100 and non-cleavage in EBY100^Kex2-
same,substrate cleavage in EBY100 against EBY100^Kex2- (two-colour FACS),[22],All three substrates exhibited cleavage in EBY100 and non-cleavage in EBY100^Kex2-
